Experimental data reported in patent publication US8097440B1, “Engineered microorganisms capable of producing target compounds under anaerobic conditions” (Gevo, Inc., priority 2008, dated 2012).

Substrate: CC(C)C=O
Assay: Alcohol dehydrogenase kinetic assay, Ec_YqhD
Format: biochemical, E. coli
Details: other: NADPH as cofactor; conversion to isobutanol
Protocol: E. coli strain GEVO1745 was transformed by electroporation with one of plasmids pGV1705-A, pGV1748-A, pGV1749-A, or pGV1778-A. 50 mL of TB medium (23.1 g/L KH2PO4, 125.4 g/L K2HPO4, 12 g/L Bacto-tryptone, 24 g/L yeast extract, 4 ml/L glycerol) were inoculated to an initial OD600 of 0.2 using a 3 mL overnight LB culture of a single colony. The 50 mL culture was allowed to grow for 3-4 hrs at 250 rpm and 37° C. Protein expression was induced at an OD600 of 2-2.5 by the addition of IPTG to a final concentration of 1 mM. After the addition of IPTG, protein expression was allowed to continue for 20-24 hours at 225 rpm and 25° C.
Alcohol dehydrogenase (ADH) activity was assayed kinetically by monitoring the decrease in NAD(P)H concentration by measuring the absorbance at 340 nm. A reaction buffer was prepared containing 0.1 M potassium phosphate, 0.4 mM NAD(P)H, 10 mM isobutyraldehyde, 1 mM DTT, and 1 mM PMSF. Cell pellets were resuspended in 0.1 M potassium phosphate buffer containing 1 mM DTT and 1 mM PMSF at one fifth of the culture volume, i.e. 10 mL resuspension buffer for cell pellet from a 50 mL culture. The resuspended cells were lysed by sonication for 1 min with a 50% duty cycle. The reaction was initiated by the addition of 0.5 mL of the reaction buffer to 0.5 mL of clarified lysate in a cuvette. […]

B1: E. coli alcohol dehydrogenase Ec_YqhD, SEQ ID NO: 69 (Escherichia coli K-12) (protein)
chain: MNNFNLHTPTRILFGKGAIAGLREQIPHDARVLITYGGGSVKKTGVLDQVLDALKGMDVLEFGGIEPNPAYETLMNAVKLVREQKVTFLLAVGGGSVLDGTKFIAAAANYPENIDPWHILQTGGKEIKSAIPMGCVLTLPATGSESNAGAVISRKTTGDKQAFHSAHVQPVFAVLDPVYTYTLPPRQVANGVVDAFVHTVEQYVTKPVDAKIQDRFAEGILLTLIEDGPKALKEPENYDVRANVMWAATQALNGLIGAGVPQDWATHMLGHELTAMHGLDHAQTLAIVLPALWNEKRDTKRAKLLQYAERVWNITEGSDDERIDAAIAATRNFFEQLGVPTHLSDYGLDGSSIPALLKKLEEHGMTQLGENHDITLDVSRRIYEAAR
Protein B1 has a Km of 250 µM.
